Laboratory results: paper PMC6597003 (ACS chemical biology, 2018)
Ends that are not written are not given here.

Target: ephrin type-A receptor 2 ligand-binding domain (UniProt P29317 23-202)
Test: DELFIA displacement assay
Conditions: not given

Chain of ephrin type-A receptor 2 ligand-binding domain (P29317 23-202): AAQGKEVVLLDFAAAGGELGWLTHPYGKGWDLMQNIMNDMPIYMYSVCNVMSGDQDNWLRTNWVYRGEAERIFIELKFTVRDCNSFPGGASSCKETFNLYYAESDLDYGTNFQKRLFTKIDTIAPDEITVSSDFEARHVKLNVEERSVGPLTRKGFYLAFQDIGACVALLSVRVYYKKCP

Molecule | IC50 [µM]
YDYVAVAGPAEY-NH2 [135A1 (1C1)] | > 500
YSLYPDSVPFRP-NH2 [135D8] | > 200
YSAYPLSVEMMS-NH2 [135B2] | > 200

Now from value to molecule:

IC50 [µM] | Molecule
> 200 | YSVYPDSVPFRP-NH2 [135D7]
> 100 | YSAYPDSVEMMS-NH2 [135B1]
> 100 | YSAYPLSVEFRP-NH2 [135A7]
> 100 | FTAFPLGFEMMS-NH2 [135B9]
> 100 | YSCYPDSVPFRP-NH2 [135D6]
> 100 | FTAFPLGFEFRP-NH2 [135B8]

System: EphA2
Test: not given
Conditions: recently reported by the authors; cited from earlier work

Molecule | concentration required in cell-based assays to activate the receptor
CSCC[C@H](NC(=O)[C@H](CCSC)NC(=O)[C@@H]1CCCN1C(=O)[C@@H](NC(=O)[C@H](CO)NC(=O)[C@H](CC(=O)O)NC(=O)[C@@H]1CCCN1C(=O)[C@H](Cc1ccc(O)cc1)NC(=O)[C@H](C)NC(=O)[C@H](CO)NC(=O)[C@@H](N)Cc1ccc(O)cc1)C(C)C)C(=O)N[C@@H](CO)C(N)=O [YSA] | tripledigit micromolar concentration
